Measurements from patent EP0672680A1.

Experiments:
[1] = target: bovine lung-derived ANP receptor (bovine); experiment: competition radioligand binding: displacement of 125I-rat ANP from bovine lung membrane fraction, filter assay
[2] = target: BK receptor derived from guinea pig ilea (guinea pig); experiment: competition radioligand binding: inhibition of 3H-BK (200 pM) binding to guinea pig ileum membrane fraction; test compound at 10^-8 M
[3] = target: BK receptor derived from guinea pig ilea (guinea pig); experiment: competition radioligand binding: inhibition of 3H-BK (200 pM) binding to guinea pig ileum membrane fraction; test compound at 10^-7 M

bovine lung-derived ANP receptor (bovine), sequence (P10730 42-537): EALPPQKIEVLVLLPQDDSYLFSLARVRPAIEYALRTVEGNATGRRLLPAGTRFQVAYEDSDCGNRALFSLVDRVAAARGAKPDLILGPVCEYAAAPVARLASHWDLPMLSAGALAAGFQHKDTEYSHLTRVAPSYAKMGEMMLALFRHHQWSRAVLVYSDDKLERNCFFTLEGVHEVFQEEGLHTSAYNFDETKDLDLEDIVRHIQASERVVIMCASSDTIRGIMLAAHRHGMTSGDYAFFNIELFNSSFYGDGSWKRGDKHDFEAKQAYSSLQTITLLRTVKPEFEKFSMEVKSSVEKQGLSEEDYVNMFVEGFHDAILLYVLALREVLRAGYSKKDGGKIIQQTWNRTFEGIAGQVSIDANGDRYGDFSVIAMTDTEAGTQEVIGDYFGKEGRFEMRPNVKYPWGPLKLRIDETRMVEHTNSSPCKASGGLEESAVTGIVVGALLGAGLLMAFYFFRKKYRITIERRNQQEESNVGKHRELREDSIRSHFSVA
BK receptor derived from guinea pig ilea (guinea pig), sequence (O70526 whole entry): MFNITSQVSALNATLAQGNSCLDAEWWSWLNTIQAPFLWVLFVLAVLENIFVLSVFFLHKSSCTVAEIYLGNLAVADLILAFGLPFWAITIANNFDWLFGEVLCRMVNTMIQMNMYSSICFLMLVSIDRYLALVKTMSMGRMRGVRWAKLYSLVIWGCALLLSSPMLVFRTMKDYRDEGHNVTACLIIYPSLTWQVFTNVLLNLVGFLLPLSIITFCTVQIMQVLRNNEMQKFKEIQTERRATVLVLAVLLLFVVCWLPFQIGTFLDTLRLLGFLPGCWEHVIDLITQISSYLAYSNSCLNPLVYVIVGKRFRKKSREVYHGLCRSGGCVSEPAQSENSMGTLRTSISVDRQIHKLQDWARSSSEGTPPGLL

IC50 [1] [nM]	Percentage inhibition (%) [2] [%]	Percentage inhibition (%) [3] [%]	Substance
2.5			compound (h) (H-Ala-Phe-Gly-Gly-Arg-Ile-Asp-Arg-Ile-Gly-Ala-Ala-NH2) (peptide)
21			compound (k) (H-Phe-Gly-Gly-Arg-(N-Me)Ile-Asp-Arg-Ile-NH2) (peptide)
3.5			compound (g) (H-Phe-Gly-Gly-Arg-Ile-Asp-Arg-Ile-NH2) (peptide)
	20	68	compound (m) (H-D-Arg-Arg-Pro-Hyp-Gly-Phe-Ser-D-Phe-Leu-Arg-OH) (peptide)
